# According to the RNAGym collection of RNA variant scans (doi:10.7554/elife.80360):
# B1: HDV Ribozyme (parent)
# chain: GGCCGGCAUGGUCCCAGCCUCCUCGCUGGCGCCGGCUGGGCAACAUUCCGAGGGGACCGUCCCCUCGGUAAUGGCGAAUGGGACCCA
# Variants of: B1
# Assay: self-cleavage, relative activity (ratio to wild type); higher = more cleavage; co-transcriptional
row,Variant,self-cleavage
1,A56U C62U,0.847
2,A56U C62A,1.05
3,C57G G73A,0.658
4,C57G G73C,0.495
5,A56U A87U,1.08
6,A56U A87C,0.963
7,G55U A71G,1.04
8,G55U A71U,0.786
9,A56C G81U,0.277
10,C58A A71C,0.831
11,C58A A71U,1.05
12,C57G A71G,1.08
13,C57G A71U,0.91
14,G55C G74C,0.297
15,G55C G74A,0.538
16,G55C G74U,0.652
17,A56C G76U,1.19
18,C57U A70G,0.967
19,G55U C57U,1.11
20,G55U C57A,1.12
21,C57U C86G,0.862
22,C57U C86U,0.991
23,A56U C84U,0.808
24,C57U U79G,0.73

row,Variant,self-cleavage
1,C57U U79A,0.752
2,C57G U60G,0.95
3,C58A A78C,0.108
4,C58A A78G,0.697
5,A56U U60G,1.07
6,A56U U60A,1.13
7,G55U C86U,0.923
8,G55U C86A,0.911
9,A56U G82C,0.172
10,A56C G68U,1.08
11,A56C G68A,1.11
12,G55U C75G,0.0707
13,G55U C75U,0.168
14,C57U C62G,1.25
15,C57U C62U,0.799
16,G55U G82C,0.233
17,G55U G82U,0.426
18,A56G G68A,0.96
19,G55U A77U,0.453
20,G55U A77G,0.607
21,G55C U69G,0.984
22,G55C U69C,1
23,C57U C66U,0.87
24,C57A G59C,0.923

row,Variant,self-cleavage
1,C57A G59A,1.04
2,C57A G59U,1.11
3,C57U G82U,0.234
4,C57G A78U,0.441
5,A56U C58U,0.985
6,A56C G80A,0.292
7,A56C G80C,0.189
8,C57A A87G,1.07
9,G55C G68U,1.08
10,A56U U72C,0.489
11,A56C G73C,0.536
12,A56U G67U,0.988
13,A56G C57U,0.985
14,A56C G74A,0.65
15,A56C G74U,0.708
16,C57G A77U,0.923
17,C57G A77G,1.05
18,A56G G82U,0.244
19,A56G G82A,0.277
20,C57U C63A,1.01
21,A56U A77G,1.01
22,C57U A78U,0.119
23,C57U A78G,0.639
24,G55C G81C,0.141

row,Variant,self-cleavage
1,G55C G81A,0.496
2,A56U U65A,1
3,C57G G82U,0.317
4,C57G G82C,0.306
5,C57U G59A,1.07
6,C57U G59C,0.89
7,C57G C84U,0.721
8,C57G C84A,0.933
9,A56U C64A,0.899
10,A56U C64G,0.882
11,A56U C64U,1.07
12,G55U A78G,0.684
13,G55U A78U,0.224
14,C57G C58A,1.26
15,C57G C58G,0.943
16,C57U U72G,0.587
17,C58A A70U,1
18,C57A C66A,1.18
19,A56C U72C,0.539
20,G55U G76C,1.08
21,G55U G76A,1.17
22,G55U G76U,0.993
23,A56U A71C,0.966
24,C57U G73A,0.891

row,Variant,self-cleavage
1,G55C U72C,0.798
2,C57G U79G,0.506
3,C57A C61U,1.14
4,A56G G74A,0.45
5,A56U G81A,0.492
6,C57U U65C,0.895
7,G55C U79A,0.527
8,C57A C63A,1.25
9,C57A C63U,1.12
10,C57A C63G,0.945
11,C58A A83C,0.723
12,C58A A83G,0.707
13,C57U C85A,0.698
14,C57U C85U,1.11
15,G55U G74A,0.668
16,A56G A78G,0.615
17,C57G C61A,1.03
18,C57G A87G,0.86
19,C57G A87C,0.98
20,C57U G68C,0.85
21,C57U G68U,1.17
22,C57U G68A,1.02
23,A56G C75G,0.175
24,A56G C75A,0

row,Variant,self-cleavage
1,G55U A83U,0.409
2,G55U A83G,0.842
3,C57G U65A,1.11
4,C57G U65C,0.96
5,C57U G74A,0.501
6,C57U G74C,0.208
7,A56U G74U,0.718
8,A56U G74A,0.681
9,A56G U72G,0.677
10,A56C U69C,1.09
11,A56C U69G,0.987
12,A56C U69A,0.776
13,A56C C57U,1.08
14,G55U U60A,0.886
15,C57A G82C,0.298
16,C57A G82A,0.554
17,C57G C66G,1.08
18,C57A U72G,0.635
19,A56G A87C,0.993
20,C57G G59U,0.978
21,C57G G59C,0.969
22,C57G G59A,0.997
23,C57A A70C,0.773
24,C57A A70G,0.852

row,Variant,self-cleavage
1,A56G C64A,0.764
2,A56G C64U,0.563
3,G55U C84U,0.743
4,G55U C84G,0.546
5,A56C U65C,1.33
6,C57A C84U,0.935
7,G55U U65G,0.847
8,G55U U65A,0.891
9,G55U C58U,1.05
10,C57U U69G,1.27
11,A56G A70U,1.1
12,A56G U60C,1.21
13,A56G U60A,0.914
14,C57U A77C,0.415
15,A56C A78C,0.111
16,A56C A78U,0.499
17,C57A G73U,0.322
18,G55U G59A,1.14
19,C57A A78U,0.108
20,C57A A78C,0.0437
21,A56G A71C,0.534
22,C57A A83G,0.688
23,G55U,1.01
24,C57A U60G,0.831

row,Variant,self-cleavage
1,G55U A70U,1.02
2,G55C C85G,1.15
3,A56C A83C,0.494
4,A56C A83U,0.192
5,C57A G80C,0.166
6,C57U A83G,0.808
7,C57A C75A,0.277
8,C57A C75U,0.0978
9,A56U U69A,1.04
10,C57U C84U,0.856
11,C57U C84A,0.748
12,C57G C62G,0.87
13,C57G C62U,1.03
14,A56G A77G,1.11
15,A56G C58A,1.12
16,A56G C58U,0.862
17,C57G A70U,0.96
18,C57G A70C,0.959
19,C57A A71C,0.866
20,A56C A77U,0.437
21,C57U C58A,1.13
22,A56U C86U,0.906
23,A56U C86A,1.01
24,A56U C86G,1.19

row,Variant,self-cleavage
1,G55C C84U,0.817
2,G55C C84G,0.712
3,A56C A71G,0.98
4,C57G C85A,0.935
5,C57G C85G,1.09
6,A56C,1
7,A56G,0.995
8,A56U,0.989
9,G55U U79C,0.395
10,A56G A83C,0.0639
11,C57G G80A,0.208
12,G55U G68U,1
13,G55U G68C,0.744
14,C57A U65C,0.762
15,C57A U65G,1.04
16,A56C C63A,1.04
17,A56C C63U,1.01
18,C57U U60C,0.906
19,C57U U60G,0.702
20,A56G G67C,1.05
21,C57A G67C,1.05
22,G55U C62G,0.793
23,A56C U79A,0.554
24,A56C U79G,0.997

row,Variant,self-cleavage
1,C57A C58A,1.07
2,C57G G76U,0.984
3,C57G G76C,0.895
4,C57G G76A,1.04
5,A56U G59C,1.01
6,A56C C58A,0.923
7,C58A A77G,1.09
8,C58A A77U,0.78
9,C58A A77C,0.482
10,A56U C63G,0.815
11,A56U C63U,0.799
12,G55C G59U,0.87
13,G55C G59A,1.06
14,A56C C61G,1.05
15,G55U C66U,0.973
16,G55U C66A,0.986
17,A56C G59U,0.848
18,A56C G59A,1.05
19,A56C G67C,1.01
20,A56C G67U,0.814
21,G55U C64U,1.05
22,A56C C62U,1.02
23,A56C C62G,0.458
24,G55U C63U,0.997

row,Variant,self-cleavage
1,G55U C63G,0.695
2,C57A U79C,0.429
3,C57G A83C,0.554
4,C57G A83U,0.587
5,G55U U72G,0.652
6,C57U A71C,0.923
7,C57U A71U,1.08
8,C57U G67A,0.906
9,A56C C64A,0.911
10,A56C C64U,1.12
11,A56G G59A,0.849
12,A56U U79G,0.787
13,A56U U79A,0.569
14,A56U U79C,0.429
15,G55C G76C,0.943
16,A56G C86U,0.987
17,G55U G73U,0.295
18,G55U G73C,0.499
19,C57G G81A,0.509
20,A56C U60G,0.68
21,A56C U60A,0.937
22,A56C A87C,1.04
23,C57A G74A,0.597
24,A56U A70U,1.09

row,Variant,self-cleavage
1,G55C C86A,1.03
2,G55C G67U,0.967
3,G55C G67C,1.06
4,C57U A87U,1.01
5,A56G G81C,0.198
6,A56G G81A,0.665
7,A56U G76A,0.939
8,A56G C62G,0.731
9,A56G C62A,0.467
10,A56G C62U,0.912
11,C57G U72C,0.587
12,C57G U72A,0.635
13,G55U A56G,0.912
14,C57G G68U,1.01
15,C57G G68C,0.831
16,G55U C85A,1.09
17,G55U C85U,0.92
18,G55U C85G,0.927
19,A56U C85A,0.966
20,A56U C85G,0.982
21,C57A G81U,0.397
22,C57A G81C,0.181
23,C57A G81A,0.339
24,A56U G68U,1.01

row,Variant,self-cleavage
1,A56U G68A,0.819
2,G55U A87U,1.1
3,G55U G67U,1.07
4,C57G G74U,0.388
5,C57G G74A,0.277
6,A56G C85G,0.831
7,A56G C85A,0.95
8,A56G C85U,1.02
9,C57U C61G,0.967
10,C57A G68A,0.819
11,C57A G68U,1.14
12,A56C C84U,0.718
13,A56C C84A,0.95
14,C57A A77G,1.17
15,A56G G76A,0.96
16,C57G C86A,0.656
17,C57G C86G,0.831
18,C57G C86U,0.815
19,G55U U69G,0.933
20,G55U U69A,0.869
21,G55U U69C,1
22,C57U G81C,0.0604
23,C57U G81A,0.415
24,C57U G80A,0.148

row,Variant,self-cleavage
1,G55U C61U,0.859
2,C57A C64G,0.658
3,C57A C64A,0.857
4,C57U C64U,0.845
5,C57G C75G,0.185
6,C57G C75A,0.287
7,C57G C75U,0.271
8,A56G C84U,0.973
9,A56G C84A,1.16
10,G55C G80A,0.34
11,A56U A78G,0.684
12,A56C C75U,0.0723
13,A56C C75A,0.116
14,A56C C75G,0.115
15,C57A C86U,1.06
16,C57A C86A,0.986
17,G55C G73A,0.751
18,C57G U69A,0.767
19,C57G U69G,1.2
20,C57G U69C,1.06
21,A56G U69C,1.32
22,A56G U69A,0.906
